From US20120195909A1 (BIONOVION HOLDING B V, published 2012)

T1: FLAG-hAPRIL (secreted form, supernatant of 293T cells transfected with pCR3-hAPRIL) (human, UniProt O75888 110-250, limits assumed)
T1 construct: Used as cell supernatant; also called FLAG-APRIL; soluble APRIL in conditioned medium; not shown: FLAG tag
T1 sequence (looked up): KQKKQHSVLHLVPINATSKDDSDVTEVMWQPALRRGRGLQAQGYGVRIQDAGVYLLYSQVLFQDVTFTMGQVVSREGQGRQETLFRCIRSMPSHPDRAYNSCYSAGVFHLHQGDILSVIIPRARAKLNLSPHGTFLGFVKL

T2: mouse APRIL (mouse, UniProt Q9D777 96-241, limits assumed)
T2 sequence (looked up): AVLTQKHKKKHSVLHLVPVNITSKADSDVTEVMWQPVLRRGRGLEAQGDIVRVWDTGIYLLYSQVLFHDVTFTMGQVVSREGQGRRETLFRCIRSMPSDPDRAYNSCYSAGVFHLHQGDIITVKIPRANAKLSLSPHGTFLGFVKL

T3: Recombinant human APRIL (R&D Systems) (human, UniProt O75888 105-250)
T3 construct: Bought protein; also called recombinant APRIL
T3 sequence (looked up): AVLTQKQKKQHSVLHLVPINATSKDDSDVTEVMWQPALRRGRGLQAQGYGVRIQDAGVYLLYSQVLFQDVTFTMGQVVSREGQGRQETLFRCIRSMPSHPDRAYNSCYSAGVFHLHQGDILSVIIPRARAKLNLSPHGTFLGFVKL


Legend:
[1] = target: FLAG-hAPRIL (secreted form, supernatant of 293T cells transfected with pCR3-hAPRIL) (human) (UniProt O75888); experiment: ELISA, FLAG-hAPRIL captured by coated anti-FLAG polyclonal antibody
[2] = target: T1, FLAG-hAPRIL (secreted form, supernatant …); experiment: blocking ELISA, FLAG-APRIL supernatant pre-mixed with titrated antibody, binding to BCMA-Fc coated at 1 µg/ml detected with anti-Flag-HRP [left graph]
Experimental: (§1) To study whether the blocking characteristics of hAPRIL.01A and hAPRIL.03A are unique, all known commercially available anti-APRIL antibodies were tested for their ability to block the interaction of FLAG-hAPRIL to BCMA-Fc and TACI-Fc (FIGS. 3A and 3B). Blockade of receptor binding was studied using an ELISA. An ELISA plate was coated with 50 with 100 μl of BCMA-Fc at 1 μg/ml or with 100 μl of TACI-Fc at a concentration of 2 μg/ml in coating buffer and incubated overnight at 4° C. The plate was then washed with PBS/0.2% Tween and then incubated with for 1 hour at 37° C. with 100 μl PBS/5% BSA per well. The plate was then washed four times with PBS/0.2% Tween. In a separate plate APRIL monoclonal antibodies were pre-mixed with APRIL supernatant and incubated for 30 minutes on ice. Conditioned medium containing soluble APRIL was diluted 1 in 4 and mixed with an equal volume of PBS containing the antibodies titrated in doubling dilutions starting with 5 μg/ml. 100 μl of the pre-incubated mix was transferred to the ELISA plate and incubated for 2 hours at 37° C. The plate was then washed four times with PBS/0.2% Tween. Anti-Flag-HRP antibody was then diluted in PBS at a concentration of 1:1000 and then 100 μl of this added to each well and incubated for 1 hour at 37° C. […] The colour was allowed to develop and then the OD at 405 nm read on an ELISA plate reader. […]

[3] = target: T1, FLAG-hAPRIL (secreted form, supernatant …); experiment: blocking ELISA: antibody pre-incubated with FLAG-hAPRIL, binding to coated BCMA-Fc (competitor) detected
Experimental: (§2) Blocking abilities of hAPRIL.01A and hAPRIL.03A were confirmed using purified antibodies. Maxisorp 96-well plates were coated with either BCMA-Fc (R&D Systems) or TACI-Fc (R&D Systems) at 50 ng/well overnight at 4° C. and blocked with 10% Goat serum/PBST for 1 hour at RT. FLAG-hAPRIL containing supernatants were pre-incubated with hAPRIL.01A, hAPRIL.03A, and Aprily-5 antibodies (10 μg/ml high test with 10-fold dilutions in triplicates) for 1 h at RT. Plates were washed with PBST 3 times, and bound FLAG-hAPRIL was detected by incubation with 1 μg/ml anti-FLAG BioM2-biotin antibody (Sigma) and 1:2,000 Streptavidin-HRP (Southern Biotechnology) for 1 hour each at RT. After the final PBST wash, APRIL-bound BCMA-Fc was visualized with OptiEIA TMB substrate (BD Biosciences). […] The concentration of half-maximum inhibition (IC₅₀) was determined for hAPRIL.01A as 1.2 and 0.4 nM for BCMA-Fc and TACI-Fc, respectively. The IC₅₀ for hAPRIL.03A to TACI-Fc was determined as 1.3 nM.

[4] = target: T1, FLAG-hAPRIL (secreted form, supernatant …); experiment: blocking ELISA, FLAG-APRIL supernatant pre-mixed with titrated antibody, binding to coated TACI-Fc (sheet: coated at 1 µg/ml) detected with anti-Flag-HRP [right graph]
Experimental: (§3) To study whether the blocking characteristics of hAPRIL.01A and hAPRIL.03A are unique, all known commercially available anti-APRIL antibodies were tested for their ability to block the interaction of FLAG-hAPRIL to BCMA-Fc and TACI-Fc (FIGS. 3A and 3B). Blockade of receptor binding was studied using an ELISA. […] The plate was then washed with PBS/0.2% Tween and then incubated with for 1 hour at 37° C. with 100 μl PBS/5% BSA per well. The plate was then washed four times with PBS/0.2% Tween. In a separate plate APRIL monoclonal antibodies were pre-mixed with APRIL supernatant and incubated for 30 minutes on ice. Conditioned medium containing soluble APRIL was diluted 1 in 4 and mixed with an equal volume of PBS containing the antibodies titrated in doubling dilutions starting with 5 μg/ml. 100 μl of the pre-incubated mix was transferred to the ELISA plate and incubated for 2 hours at 37° C. The plate was then washed four times with PBS/0.2% Tween. Anti-Flag-HRP antibody was then diluted in PBS at a concentration of 1:1000 and then 100 μl of this added to each well and incubated for 1 hour at 37° C. The plate was then washed four times with PBS/0.2% Tween and then 100 μl of ABTS added to each well (the ABTS was diluted to the ratio 10 ml of reagent plus 5 μl of H₂O₂ made immediately before addition). The colour was allowed to develop and then the OD at 405 nm read on an ELISA plate reader. […]

[5] = target: T1, FLAG-hAPRIL (secreted form, supernatant …); experiment: blocking ELISA, FLAG-APRIL supernatant pre-mixed with titrated antibody, binding to coated TACI-Fc (sheet: coated at 1 µg/ml) detected with anti-Flag-HRP [left graph]
Experimental: as §3

[6] = target: T1, FLAG-hAPRIL (secreted form, supernatant …); experiment: ELISA, FLAG-hAPRIL captured by coated anti-FLAG polyclonal antibody
Experimental: Protein-based ELISA experiments using purified hAPRIL.01A and hAPRIL.03A antibodies were performed to determine apparent binding affinities (reported as EC₅₀ values). Binding was compared to mouse anti-hAPRIL IgG1 Aprily-5 (Alexis). Maxisorp 96-well immunoplates (Nunc) were coated with either rabbit anti-FLAG polyclonal antibody (Sigma) or BCMA-Fc (R&D Systems) at 50 ng/well in PBS overnight at 4° C. and blocked with 10% Goat serum/PBST for 1 hour at RT. Plates were washed with PBST 3 times and incubated with supernatant (1:4 in PBS) containing FLAG-hAPRIL for 1 hour at RT. Plates were again washed with PBST 3 times and incubated with hAPRIL.01A, hAPRIL.03A, and Aprily-5 antibodies (10 μg/ml high test with 10-fold dilutions in triplicates) for 1 h at RT. After three washes with PBST, bound antibodies were detected with goat anti-mouse IgG-HRP (1:2,000) (Southern Biotechnology) for 1 hour at RT. Plate was washed three times with PBST, and APRIL-reactivity was visualized with OptiEIA TMB substrate (Becton Dickinson). The concentration for half-maximal binding is reported as a measure of relative binding affinity. When FLAG-hAPRIL was captured by the anti-FLAG antibody (FIG. 2A), EC₅₀ values for hAPRIL.01A, hAPRIL.03A and Aprily-5 were calculated as 2.2, 1.4, and 1.7 nM, respectively. […] In contrast, binding of hAPRIL.03A to the APRIL-BCMA complex was observed.

[7] = target: T1, FLAG-hAPRIL (secreted form, supernatant …); experiment: blocking ELISA: antibody pre-incubated with FLAG-hAPRIL, binding to coated TACI-Fc (competitor) detected
mouse APRIL = target: T2, mouse APRIL; experiment: BIAcore
[8] = target: T3, Recombinant human APRIL (R&D Systems); experiment: bio-light interferometry (Octet), antibody amine-coupled to the biosensor, APRIL at 1 and 2 µg/ml, 1:1 global fit; column printed as kobs
Experimental: (§4) To further characterize the binding characteristics of the antibodies, each was profiled using bio-light interferometry on the Octet system (ForteBio, Menlo Park, Calif.) to elucidate binding kinetics and calculate equilibrium binding constants. This assay was performed by coupling purified hAPRIL.01A and hAPRIL.03A antibodies to amine-reactive biosensors (Fortebio) using standard amine chemistry. Recombinant human APRIL (R&D Systems) binding to and dissociation from the biosensors was then observed at two concentrations, 1 and 2 μg/ml. Specifically, amine-reactive biosensors were pre-wetted by immersing them in wells containing 0.1M MES pH=5 for 2 minutes. The biosensors were then activated using a 0.1M NHS/0.4M EDC mixture for 5 minutes. hAPRIL.01A and hAPRIL.03A antibodies were coupled by immersing the biosensors in a solution of 5 μg/mL of the antibody for 18 minutes. The biosensor surface was quenched using a solution of 1M ethanolamine pH 8.5 for 7 minutes. Biosensors were equilibrated in PBS for 5 minutes. […] Dissociation was measured after transfer of the biosensors into PBS and monitoring of the interferometry signal for 20 minutes. The observed on and off rates (kobs and kd) were fit using a 1:1 binding global fit model, and the equilibrium binding constant KD was calculated (see Table 1).

[9] = target: T1, FLAG-hAPRIL (secreted form, supernatant …); experiment: blocking ELISA, FLAG-hAPRIL pre-incubated with titrated antibody, binding to coated TACI-Fc detected with anti-FLAG
Experimental: as §2

[10] = target: T1, FLAG-hAPRIL (secreted form, supernatant …); experiment: blocking ELISA, FLAG-APRIL supernatant pre-mixed with titrated antibody, binding to BCMA-Fc coated at 1 µg/ml detected with anti-Flag-HRP [right graph]
Experimental: as §1

[11] = target: T3, Recombinant human APRIL (R&D Systems); experiment: bio-light interferometry (Octet), antibody amine-coupled to the biosensor, APRIL at 1 and 2 µg/ml, 1:1 global fit
Experimental: as §4

| EC50 [1] [nM] | IC50 (read off the curve) [2] [µg/mL] | IC50 [3] [nM] | IC50 (read off the curve) [4] [µg/mL] | IC50 (read off the curve) [5] [µg/mL] | EC50 [6] [nM] | IC50 [7] [nM] | binding result (mouse APRIL) | kon [8] [M⁻¹ s⁻¹] | IC50 (read off the curve) [9] [µg/mL] | IC50 (read off the curve) [10] [µg/mL] | Kd [11] [nM] | koff [11] [s⁻¹] | Molecule |
| --- | --- | --- | --- | --- | --- | --- | --- | --- | --- | --- | --- | --- | --- |
| 1.7 |  |  |  |  |  |  |  |  |  |  |  |  | mouse anti-hAPRIL IgG1 Aprily-5 (Alexis) (antibody) |
|  | ~0.8 | 1.2 | ~0.7 | ~0.7 | 2.2 | 0.4 | no binding | 48900 | ~0.2 | ~0.9 | 0.753 | 3.69e-05 | hAPRIL.01A (antibody, IgG1, V domains shown, Mouse antibody from a hybridoma, IgG1, kappa) VH: EVQLQQSGPELVKPGASVKMSCKASGYTFTSYVMHWVKQKPGQGLEWIGYINPYNDAPKYNEKFKGKATVTSDKSSGTAYMELSSLTSEDSAVYYCARGLGYALYYAMDYWGQGTSVTVSS VL: DIVMTQSQKFKSTSVGDRVSVTCKASQNVGNNVAWYQQKAGQSPKALISSASNRDSGVPDRFTGSGSGTDFTLTISNVQSEDLADYFCQQYNIYPFTFGSGTELEIK |
